B1: human L-plastin (other, UniProt P13796 2-627, looked up)
chain: ARGSVSDEEMMELREAFAKVDTDGNGYISFNELNDLFKAACLPLPGYRVREITENLMATGDLDQDGRISFDEFIKIFHGLKSTDVAKTFRKAINKKEGICAIGGTSEQSSVGTQHSYSEEEKYAFVNWINKALENDPDCRHVIPMNPNTNDLFNAVGDGIVLCKMINLSVPDTIDERTINKKKLTPFTIQENLNLALNSASAIGCHVVNIGAEDLKEGKPYLVLGLLWQVIKIGLFADIELSRNEALIALLREGESLEDLMKLSPEELLLRWANYHLENAGCNKIGNFSTDIKDSKAYYHLLEQVAPKGDEEGVPAVVIDMSGLREKDDIQRAECMLQQAERLGCRQFVTATDVVRGNPKLNLAFIANLFNRYPALHKPENQDIDWGALEGETREERTFRNWMNSLGVNPRVNHLYSDLSDALVIFQLYEKIKVPVDWNRVNKPPYPKLGGNMKKLENCNYAVELGKNQAKFSLVGIGGQDLNEGNRTLTLALIWQLMRRYTLNILEEIGGGQKVNDDIIVNWVNETLREAKKSSSISSFKDPKISTSLPVLDLIDAIQPGSINYDLLKTENLNDDEKLNNAKYAISMARKIGARVYALPEDLVEVNPKMVMTVFACLMGKGMKRV
notes: mature; the assay field says which; also called L-fimbrin; endogenous L-plastin

Data set [1] deals with the molecule itself. Nature of the data set: Superdex 200 HR gel filtration of L-plastin alone. A general note: Size exclusion chromatography separates by hydrodynamic size, large species first.
The next data set deals with T1, GST-ABD1+2 of L-plastin (human, UniProt P13796 106-627).
T1 construct: domain: ABD1+2; also called both ABDs combined; combination of the two ABDs; not shown: glutathione S-transferase tag of vector pGEX-2T
T1 sequence (looked up): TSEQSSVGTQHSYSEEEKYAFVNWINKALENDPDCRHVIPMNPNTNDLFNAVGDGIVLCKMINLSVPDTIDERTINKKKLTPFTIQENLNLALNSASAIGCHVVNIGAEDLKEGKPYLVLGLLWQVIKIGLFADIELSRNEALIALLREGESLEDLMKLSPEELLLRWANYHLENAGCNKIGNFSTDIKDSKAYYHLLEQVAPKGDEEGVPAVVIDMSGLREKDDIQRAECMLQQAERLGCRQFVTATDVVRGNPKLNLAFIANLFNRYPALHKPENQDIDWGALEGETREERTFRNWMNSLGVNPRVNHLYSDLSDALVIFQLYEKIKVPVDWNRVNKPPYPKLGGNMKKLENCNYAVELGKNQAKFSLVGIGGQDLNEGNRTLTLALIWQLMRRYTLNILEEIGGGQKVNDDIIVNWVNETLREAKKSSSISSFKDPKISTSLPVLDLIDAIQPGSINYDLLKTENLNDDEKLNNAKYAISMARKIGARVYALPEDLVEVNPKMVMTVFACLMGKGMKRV
Put plainly: ITC, nanobody with GST-tagged L-plastin domain. (In general: ITC needs no label: the signal is the heat of the interaction.)

In the data set “human L-plastin” the target is B1. Nature of the data set: ITC, L-plastin titrated with His6-tagged nanobody.

Data on two molecules can be found in WO2010108824A1 (dated 2010).

In the case of B1, the binding result in data set [1] is reported as “binds”.

B2: L-plastin nanobody 5 (VHH)
VHH: QVQLQESGGGLVQAGDSLRLSCAVSGGTFGRVGVGWFRRAPGKEREFVAAVNWSGISTFYADSVKGRFTISRDDNKHTVDLRMNSLKPEDSAVYFCATDFRFNVPMNGTEYDYWGQGTQVTVSS
notes: Alpaca VHH; His6-tagged recombinant protein (pHEN6c, E. coli) in ITC, gel filtration, pull-down, cross-linking and co-sedimentation; V5-tagged, MOM-V5-tagged or GFP-fused when expressed in PC-3 cells; also called Nb 5; Nb5
For orientation: Kd means a measure of binding affinity in units of concentration. A lower Kd goes with tighter binding. As for B2, the results for the Kd with GST-ABD1+2 of L-plastin and with human L-plastin were 46.5 nM and roughly 40 nM, respectively.
